# Laboratory results reported in US20040205843A1 (NORTH CAROLINA STATE UNIVERSITY, published 2004).
# Residue numbers refer to the chain shown, from its start. Where two headings read alike, the source gives them in different places.
# T1: Full length GST-AL1 1-352 (tomato golden mosaic virus (TGMV), UniProt P03567 1-352)
# T1 sequence: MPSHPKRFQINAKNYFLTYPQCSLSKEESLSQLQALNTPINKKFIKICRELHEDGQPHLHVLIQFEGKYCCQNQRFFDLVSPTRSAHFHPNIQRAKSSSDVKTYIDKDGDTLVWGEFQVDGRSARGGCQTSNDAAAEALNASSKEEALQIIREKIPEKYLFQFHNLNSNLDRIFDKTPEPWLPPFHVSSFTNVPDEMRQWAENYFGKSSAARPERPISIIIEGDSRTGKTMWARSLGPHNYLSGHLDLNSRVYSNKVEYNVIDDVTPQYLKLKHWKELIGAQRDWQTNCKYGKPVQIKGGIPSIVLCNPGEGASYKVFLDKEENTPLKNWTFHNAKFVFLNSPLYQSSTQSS
# T2: AL1 160-352 (tomato golden mosaic virus (TGMV), UniProt P03567 160-352)
# T2 sequence: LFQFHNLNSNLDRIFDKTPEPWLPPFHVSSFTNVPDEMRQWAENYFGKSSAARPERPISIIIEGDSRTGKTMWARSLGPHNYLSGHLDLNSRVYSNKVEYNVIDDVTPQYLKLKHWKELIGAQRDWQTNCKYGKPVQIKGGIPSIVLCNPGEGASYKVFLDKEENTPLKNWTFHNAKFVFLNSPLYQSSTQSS
# T3: AL1 119-352 (tomato golden mosaic virus (TGMV), UniProt P03567 119-352)
# T3 sequence: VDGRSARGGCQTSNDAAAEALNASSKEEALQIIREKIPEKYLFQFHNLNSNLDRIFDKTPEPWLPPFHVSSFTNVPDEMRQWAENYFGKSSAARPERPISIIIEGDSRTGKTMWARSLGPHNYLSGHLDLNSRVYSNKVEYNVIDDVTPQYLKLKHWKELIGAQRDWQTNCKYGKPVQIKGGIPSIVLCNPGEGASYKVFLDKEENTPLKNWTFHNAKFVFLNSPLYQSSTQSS
# B1: AL1 AAA136 (Leu) fused to the Gal4 activation domain (pNSB785) (other)
# chain: T1 sequence with A134L, A135L, A136L
# B2: TGMV AL1, wild type, full length, untagged (other)
# chain: T1 sequence
# notes: also called Rep; authentic AL1
# B3: AL1 EKY159 (Ala7) fused to the Gal4 activation domain (pNSB760) (other)
# chain: T1 sequence with E157A, K158A, Y159A
# B4: AL1 FQ118 (Ala13) fused to the Gal4 activation domain (pNSB872) (other)
# chain: T1 sequence with F117A, Q118A
# B5: AL1 N-DR172 (Ala9), full length, untagged (other)
# chain: T1 sequence with N169A, D171A, R172A
# B6: AL1 Q-HN165 (Ala8) fused to the Gal4 activation domain (pNSB761) (other)
# chain: T1 sequence with Q162A, H164A, N165A
# B7: AL1 KEE146 (Ala5) fused to the Gal4 activation domain (pNSB894) (other)
# chain: T1 sequence with K144A, E145A, E146A
# B8: AL1 Q-HN165 (Ala8), full length, untagged (other)
# chain: T1 sequence with Q162A, H164A, N165A
# B9: AL1 N-DR172 (Ala9) fused to the Gal4 activation domain (pNSB762) (other)
# chain: T1 sequence with N169A, D171A, R172A
# B10: AL1 K144 fused to the Gal4 activation domain (pNSB916) (other)
# chain: T1 sequence with K144A
# B11: AL1 E-N140 (Ala4), full length, untagged (other)
# chain: T1 sequence with E137A, N140A
# B12: AL1 D120 (Ala14) fused to the Gal4 activation domain (pNSB871) (other)
# chain: T1 sequence with D120A
# B13: AL1 REK154 (Ala6), full length, untagged (other)
# chain: T1 sequence with R152A, E153A, K154A
# B14: AL1 REK154 (Ala6) fused to the Gal4 activation domain (pNSB759) (other)
# chain: T1 sequence with R152A, E153A, K154A
# B15: AL1 E--N140 + KEE146 (Ala4+5) fused to the Gal4 activation domain (pNSB757) (other)
# chain: T1 sequence with E137A, N140A, K144A, E145A, E146A
# B16: AL1 RS-R125 (Ala1) fused to the Gal4 activation domain (pNSB786) (other)
# chain: T1 sequence with R122A, S123A, R125A
# B17: AL1 K-E179 (Ala10), full length, untagged (other)
# chain: T1 sequence with K176A, E179A
# B18: AL1 KEE146 (Ala5), full length, untagged (other)
# chain: T1 sequence with K144A, E145A, E146A
# B19: AL1 1-180 (other)
# chain: MPSHPKRFQINAKNYFLTYPQCSLSKEESLSQLQALNTPINKKFIKICRELHEDGQPHLHVLIQFEGKYCCQNQRFFDLVSPTRSAHFHPNIQRAKSSSDVKTYIDKDGDTLVWGEFQVDGRSARGGCQTSNDAAAEALNASSKEEALQIIREKIPEKYLFQFHNLNSNLDRIFDKTPEP
# B20: AL1 1-158 (other)
# chain: MPSHPKRFQINAKNYFLTYPQCSLSKEESLSQLQALNTPINKKFIKICRELHEDGQPHLHVLIQFEGKYCCQNQRFFDLVSPTRSAHFHPNIQRAKSSSDVKTYIDKDGDTLVWGEFQVDGRSARGGCQTSNDAAAEALNASSKEEALQIIREKIPEK
# B21: GST-AL1 119-180 (other)
# chain: VDGRSARGGCQTSNDAAAEALNASSKEEALQIIREKIPEKYLFQFHNLNSNLDRIFDKTPEP
# B22: AL1 147-352 (other)
# chain: ALQIIREKIPEKYLFQFHNLNSNLDRIFDKTPEPWLPPFHVSSFTNVPDEMRQWAENYFGKSSAARPERPISIIIEGDSRTGKTMWARSLGPHNYLSGHLDLNSRVYSNKVEYNVIDDVTPQYLKLKHWKELIGAQRDWQTNCKYGKPVQIKGGIPSIVLCNPGEGASYKVFLDKEENTPLKNWTFHNAKFVFLNSPLYQSSTQSS
# B23: AL1 134-352 (other)
# chain: AAAEALNASSKEEALQIIREKIPEKYLFQFHNLNSNLDRIFDKTPEPWLPPFHVSSFTNVPDEMRQWAENYFGKSSAARPERPISIIIEGDSRTGKTMWARSLGPHNYLSGHLDLNSRVYSNKVEYNVIDDVTPQYLKLKHWKELIGAQRDWQTNCKYGKPVQIKGGIPSIVLCNPGEGASYKVFLDKEENTPLKNWTFHNAKFVFLNSPLYQSSTQSS
# B24: AL1 1-168 (other)
# chain: MPSHPKRFQINAKNYFLTYPQCSLSKEESLSQLQALNTPINKKFIKICRELHEDGQPHLHVLIQFEGKYCCQNQRFFDLVSPTRSAHFHPNIQRAKSSSDVKTYIDKDGDTLVWGEFQVDGRSARGGCQTSNDAAAEALNASSKEEALQIIREKIPEKYLFQFHNLNS
# How the values were obtained:
# [1] = biological target: T4, Wild type TGMV AL1 fused to the Gal4 DNA binding domain (pNSB736) (tomato golden mosaic virus (TGMV))
# [2] = biological target: T5, Maize Rb (amino acids 214-866) fused to the Gal4 DNA binding domain (Zm214C) (maize)
# T5 sequence (P04386 1-147): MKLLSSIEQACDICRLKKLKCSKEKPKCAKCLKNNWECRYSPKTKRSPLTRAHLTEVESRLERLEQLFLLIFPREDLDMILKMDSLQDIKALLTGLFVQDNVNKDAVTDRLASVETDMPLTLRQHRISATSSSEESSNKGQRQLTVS
# [3] = biological target: T1, Full length GST-AL1 1-352; experiment: GST co-purification from insect cells, immunoblot
# [4] = biological target: T4, Wild type TGMV AL1 fused to the Gal4 …; remark: listed apart in the source
# [5] = biological target: T4, Wild type TGMV AL1 fused to the Gal4 …; experiment: yeast two-hybrid, beta-galactosidase activity
# [6] = biological target: T5, Maize Rb (amino acids 214-866) fused to …; remark: listed apart in the source
# [7] = biological target: T1, Full length GST-AL1 1-352; experiment: GST co-purification on glutathione-sepharose from insect cells, immunoblot
# AL1 160-352 = biological target: T2, AL1 160-352; experiment: GST co-purification from insect cells, immunoblot
# AL1 147-352 = biological target: B22; experiment: GST co-purification from insect cells, immunoblot
# [8] = biological target: B2; experiment: GST co-purification from insect cells, immunoblot
# AL1 134-352 = biological target: B23; experiment: GST co-purification from insect cells, immunoblot
# AL1 119-352 = biological target: T3, AL1 119-352; experiment: GST co-purification from insect cells, immunoblot
binder,measurement,setting,value
B1,oligomer. (oligomerization activity relative to wild type),[1],30 relative to wild type (100)
same,Rep/Rb (Rb binding activity relative to wild type),[2],8 relative to wild type (100)
B2,binding result,[3],binds
B3,Rep/Rb (Rb binding activity relative to wild type),[2],31 relative to wild type (100)
B4,oligomer. (oligomerization activity relative to wild type),[1],95 relative to wild type (100)
same,Rep/Rb (Rb binding activity relative to wild type),[2],23 relative to wild type (100)
same,oligomer. (oligomerization activity relative to wild type),[4],95 relative to wild type (100)
B5,binding result,[3],binds
B6,oligomer. (oligomerization activity relative to wild type),[4],102 relative to wild type (100)
B7,"AL1 interactions, percent of wild type AL1/AL1 mediated activation",[5],51 % of wild type
same,"RBR1 binding activity, percent of wild type",[6],16 % of wild type
B8,binding result,[3],binds
B9,oligomer. (oligomerization activity relative to wild type),[4],31 relative to wild type (100)
B10,"RBR1 interactions, percent of wild type levels",[6],42 % of wild type
B11,binding result,[3],binds
B12,oligomer. (oligomerization activity relative to wild type),[4],67 relative to wild type (100)
B13,binding result,[3],binds
B14,oligomer. (oligomerization activity relative to wild type),[1],57 relative to wild type (100)
same,Rep/Rb (Rb binding activity relative to wild type),[2],69 relative to wild type (100)
same,fold reduction of RBR1 binding activity against wild type,[6],2 fold
same,oligomer. (oligomerization activity relative to wild type),[4],57 relative to wild type (100)
B15,oligomer. (oligomerization activity relative to wild type),[1],88 relative to wild type (100)
same,Rep/Rb (Rb binding activity relative to wild type),[2],45 relative to wild type (100)
same,oligomer. (oligomerization activity relative to wild type),[4],88 relative to wild type (100)
B16,oligomer. (oligomerization activity relative to wild type),[1],27 relative to wild type (100)
same,Rep/Rb (Rb binding activity relative to wild type),[2],20 relative to wild type (100)
same,oligomer. (oligomerization activity relative to wild type),[4],27 relative to wild type (100)
B17,binding result,[3],binds
B18,binding result,[3],binds
B19,binding result,[3],binds
B20,binding result,[7],no binding
B21,binding result,AL1 160-352,no binding
same,binding result,AL1 147-352,no binding
same,binding result,[8],binds
same,binding result,AL1 134-352,binds
same,binding result,AL1 119-352,binds
B22,binding result,[3],binds
B23,binding result,[3],binds
B24,binding result,[7],no binding
